{"source": "patent US20170165373A1", "molecular_target": "human BCMA (huBCMA), full length, on cells (human) (UniProt Q02223)", "sequence (Q02223 whole entry N81S)": "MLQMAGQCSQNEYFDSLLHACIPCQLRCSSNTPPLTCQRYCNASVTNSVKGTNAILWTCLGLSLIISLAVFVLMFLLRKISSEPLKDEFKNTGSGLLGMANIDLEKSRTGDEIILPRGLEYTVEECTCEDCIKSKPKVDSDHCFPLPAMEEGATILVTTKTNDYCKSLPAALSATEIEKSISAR", "assay": "cell-based or functional assay", "data": [{"binder": "29C12-MCC-DM1 (antibody drug conjugate) (protein) VH: EVQLLESGGALVQPGGSLRLSCAASGFTFSSYAMNWVRQAPGKGLEWVSAISVGGDTYYADSVKGRFTISRDNSKNTLYLQMNSLRAEDTAVYYCAKDQVTMVRGVWYYYGLDVWGQGTTVTVSS VL: DIVMIQSPLSLPVTPGEPASISCRSSQSLLHSNGNNYLDWYLQKPGQSPHLLISLGSNRTSGVPDRFSGSGSGTDFTLKISRVEAEDVGVYYCMQALQPPRRFGQGTKLEIKR", "values": [{"measurement": "H929 cell growth inhibition IC50 (CellTiter-Glo, 96 h)", "value": 0.39, "unit": "nM"}]}]}
